# Where no end group is shown, it is not given here. The star is where a group is joined. Palmitoyl = CCCCCCCCCCCCCCCC(=O)*
# T1: PTH receptor 1 (PTHR1) (UniProt Q03431 27-593, limits assumed)
# T1 sequence (looked up): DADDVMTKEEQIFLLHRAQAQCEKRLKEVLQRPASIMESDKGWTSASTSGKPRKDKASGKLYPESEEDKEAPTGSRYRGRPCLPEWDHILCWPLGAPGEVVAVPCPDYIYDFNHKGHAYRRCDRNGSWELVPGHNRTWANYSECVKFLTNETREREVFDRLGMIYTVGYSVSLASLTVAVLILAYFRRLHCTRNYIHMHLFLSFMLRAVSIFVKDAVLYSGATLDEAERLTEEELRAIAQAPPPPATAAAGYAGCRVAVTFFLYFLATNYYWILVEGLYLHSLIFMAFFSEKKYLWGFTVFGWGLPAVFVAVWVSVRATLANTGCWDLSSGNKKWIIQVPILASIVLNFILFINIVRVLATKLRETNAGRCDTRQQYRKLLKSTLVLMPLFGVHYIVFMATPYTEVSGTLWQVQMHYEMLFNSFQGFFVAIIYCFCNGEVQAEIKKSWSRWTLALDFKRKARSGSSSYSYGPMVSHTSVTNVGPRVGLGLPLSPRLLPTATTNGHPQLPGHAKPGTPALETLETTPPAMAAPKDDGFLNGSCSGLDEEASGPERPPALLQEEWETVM
# Columns and labels:
# PTH receptor 1 (PTHR1) = target: T1, PTH receptor 1 (PTHR1); test: cell-based or functional assay
# [1] = target: melanocortin receptor 1 (MC1R) (UniProt Q01726 1-317, limits assumed); test: cell-based or functional assay
# Sequence of melanocortin receptor 1 (MC1R) (Q01726 whole entry): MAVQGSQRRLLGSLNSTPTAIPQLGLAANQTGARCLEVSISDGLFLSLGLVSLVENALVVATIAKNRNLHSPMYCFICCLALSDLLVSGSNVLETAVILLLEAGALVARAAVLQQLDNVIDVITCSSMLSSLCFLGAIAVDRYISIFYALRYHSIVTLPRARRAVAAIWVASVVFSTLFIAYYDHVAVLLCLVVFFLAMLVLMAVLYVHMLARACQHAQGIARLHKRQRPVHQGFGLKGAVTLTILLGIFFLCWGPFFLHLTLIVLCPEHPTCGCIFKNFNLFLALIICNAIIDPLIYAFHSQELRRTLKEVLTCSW
Binder,"EC50 (nM), PTHR1 cAMP agonistic assay (PTH receptor 1 (PTHR1)) [nM]","EC50 (nM), MC1R cAMP agonistic assay [1] [nM]"
"Palmitoyl-HSYSEIQLMHNLGKHLNSMERVEWLRKKLQDVHNF [SEQ ID NO: 232, Pal-HSYSEIQLMHNLGKHLNSMERVEWLRKKLQDVHNF, gel-forming PTH analog]",14.1,–
"Palmitoyl-HSYSMEHFRWGKPVGKKRRPVKVYP [SEQ ID NO: 226, Pal-HSYSMEHFRWGKPVGKKRRPVKVYP, conjugated gel-forming ACTH1-24 analog]",–,0.14

# — patent US20200405868A1 (ADEPTHERA, published 2020)
